Non-standard residues stand in square brackets, D forms with d. No end group written: not given here. *: point of attachment. 4‑guanidinomethylbenzoyl = N=C(N)NCc1ccc(C(=O)*)cc1; Phe(2-Me) = Cc1ccccc1C[C@H](N)C(=O)O; Cha = N[C@@H](CC1CCCCC1)C(=O)O; 4Amb = NCc1ccc(C(=O)O)cc1; Aib = CC(C)(N)C(=O)O
T1: human Y2 receptor (human, UniProt P49146 1-381)
T1 sequence (looked up): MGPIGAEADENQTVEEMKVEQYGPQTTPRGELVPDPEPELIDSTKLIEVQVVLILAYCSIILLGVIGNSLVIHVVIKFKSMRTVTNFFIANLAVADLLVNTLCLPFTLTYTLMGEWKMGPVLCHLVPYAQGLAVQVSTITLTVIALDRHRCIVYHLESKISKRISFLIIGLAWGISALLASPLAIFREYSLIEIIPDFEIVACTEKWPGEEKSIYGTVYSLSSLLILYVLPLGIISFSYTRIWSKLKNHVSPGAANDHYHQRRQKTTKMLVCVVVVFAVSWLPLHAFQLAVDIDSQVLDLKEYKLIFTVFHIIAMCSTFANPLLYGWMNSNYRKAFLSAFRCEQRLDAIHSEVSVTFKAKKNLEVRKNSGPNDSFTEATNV

B1: Ac-[D-Pro24, Cha27,28, Aib31, Phe(2Me)36]-PYY(23-36) (peptide)
peptide: Ac-S[dP]RH[Cha][Cha]NL[Aib]TRQR[Phe(2-Me)]-NH2
SMILES: CC(=O)N[C@@H](CO)C(=O)N1CCC[C@@H]1C(=O)N[C@@H](CCCNC(=N)N)C(=O)N[C@@H](Cc1c[nH]cn1)C(=O)N[C@@H](CC1CCCCC1)C(=O)N[C@@H](CC1CCCCC1)C(=O)N[C@@H](CC(N)=O)C(=O)N[C@@H](CC(C)C)C(=O)NC(C)(C)C(=O)N[C@H](C(=O)N[C@@H](CCCNC(=N)N)C(=O)N[C@@H](CCC(N)=O)C(=O)N[C@@H](CCCNC(=N)N)C(=O)N[C@@H](Cc1ccccc1C)C(N)=O)[C@@H](C)O
notes: also called compound No. 196
B2: 4-Guanidinomethylbenzoyl-[Ala26, Ile28,31]-PYY(25-36) (peptide)
peptide: {4‑guanidinomethylbenzoyl}-RAYINLITRQRY-NH2
SMILES: CC[C@H](C)[C@H](NC(=O)[C@H](Cc1ccc(O)cc1)NC(=O)[C@H](C)NC(=O)[C@H](CCCNC(=N)N)NC(=O)c1ccc(CNC(=N)N)cc1)C(=O)N[C@@H](CC(N)=O)C(=O)N[C@@H](CC(C)C)C(=O)N[C@H](C(=O)N[C@H](C(=O)N[C@@H](CCCNC(=N)N)C(=O)N[C@@H](CCC(N)=O)C(=O)N[C@@H](CCCNC(=N)N)C(=O)N[C@@H](Cc1ccc(O)cc1)C(N)=O)[C@@H](C)O)[C@@H](C)CC
notes: also called compound No. 4
B3: 4-Aminomethylbenzoyl-[Ala26, Arg27, Ile28,31]-PYY(25-36) (peptide)
peptide: [4Amb]RARINLITRQRY-NH2
modifications: N-terminus assumed
SMILES: CC[C@H](C)[C@H](NC(=O)[C@H](CCCNC(=N)N)NC(=O)[C@H](C)NC(=O)[C@H](CCCNC(=N)N)NC(=O)c1ccc(CN)cc1)C(=O)N[C@@H](CC(N)=O)C(=O)N[C@@H](CC(C)C)C(=O)N[C@H](C(=O)N[C@H](C(=O)N[C@@H](CCCNC(=N)N)C(=O)N[C@@H](CCC(N)=O)C(=O)N[C@@H](CCCNC(=N)N)C(=O)N[C@@H](Cc1ccc(O)cc1)C(N)=O)[C@@H](C)O)[C@@H](C)CC
notes: also called compound No. 29
B4: 4-Aminomethylbenzoyl-[Ala26, Ile28,31, Leu32]-PYY(25-36) (peptide)
peptide: [4Amb]RAYINLILRQRY-NH2
modifications: N-terminus assumed
SMILES: CC[C@H](C)[C@H](NC(=O)[C@H](Cc1ccc(O)cc1)NC(=O)[C@H](C)NC(=O)[C@H](CCCNC(=N)N)NC(=O)c1ccc(CN)cc1)C(=O)N[C@@H](CC(N)=O)C(=O)N[C@@H](CC(C)C)C(=O)N[C@H](C(=O)N[C@@H](CC(C)C)C(=O)N[C@@H](CCCNC(=N)N)C(=O)N[C@@H](CCC(N)=O)C(=O)N[C@@H](CCCNC(=N)N)C(=O)N[C@@H](Cc1ccc(O)cc1)C(N)=O)[C@@H](C)CC
notes: also called compound No. 62
B5: 4-Aminomethylbenzoyl-[Ala26, Ile28,31, Phe36]-PYY(25-36) (peptide)
peptide: [4Amb]RAYINLITRQRF-NH2
modifications: N-terminus assumed
SMILES: CC[C@H](C)[C@H](NC(=O)[C@H](Cc1ccc(O)cc1)NC(=O)[C@H](C)NC(=O)[C@H](CCCNC(=N)N)NC(=O)c1ccc(CN)cc1)C(=O)N[C@@H](CC(N)=O)C(=O)N[C@@H](CC(C)C)C(=O)N[C@H](C(=O)N[C@H](C(=O)N[C@@H](CCCNC(=N)N)C(=O)N[C@@H](CCC(N)=O)C(=O)N[C@@H](CCCNC(=N)N)C(=O)N[C@@H](Cc1ccccc1)C(N)=O)[C@@H](C)O)[C@@H](C)CC
notes: also called compound No. 6
B6: 4-Aminomethylbenzoyl-[Ala26,28, Ile31]-PYY(25-36) (peptide)
peptide: [4Amb]RAYANLITRQRY-NH2
modifications: N-terminus assumed
SMILES: CC[C@H](C)[C@H](NC(=O)[C@H](CC(C)C)NC(=O)[C@H](CC(N)=O)NC(=O)[C@H](C)NC(=O)[C@H](Cc1ccc(O)cc1)NC(=O)[C@H](C)NC(=O)[C@H](CCCNC(=N)N)NC(=O)c1ccc(CN)cc1)C(=O)N[C@H](C(=O)N[C@@H](CCCNC(=N)N)C(=O)N[C@@H](CCC(N)=O)C(=O)N[C@@H](CCCNC(=N)N)C(=O)N[C@@H](Cc1ccc(O)cc1)C(N)=O)[C@@H](C)O
notes: also called compound No. 31
B7: 4-Aminomethylbenzoyl-[Ala26,30, Ile28,31]-PYY(25-36) (peptide)
peptide: [4Amb]RAYINAITRQRY-NH2
modifications: N-terminus assumed
SMILES: CC[C@H](C)[C@H](NC(=O)[C@H](C)NC(=O)[C@H](CC(N)=O)NC(=O)[C@@H](NC(=O)[C@H](Cc1ccc(O)cc1)NC(=O)[C@H](C)NC(=O)[C@H](CCCNC(=N)N)NC(=O)c1ccc(CN)cc1)[C@@H](C)CC)C(=O)N[C@H](C(=O)N[C@@H](CCCNC(=N)N)C(=O)N[C@@H](CCC(N)=O)C(=O)N[C@@H](CCCNC(=N)N)C(=O)N[C@@H](Cc1ccc(O)cc1)C(N)=O)[C@@H](C)O
notes: also called compound No. 32

Key:
human Y2 receptor [1] = target: T1, human Y2 receptor; assay: cell-based or functional assay
human Y2 receptor [2] = target: T1, human Y2 receptor; assay: RBA: [125I]-PYY displacement, hY2R/CHO membranes
How it was run: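 Bound radioligand was collected by filtration on PEI-treated GF/C filters, washed with Tris/MgCl₂/NaCl/CHAPS buffer pH 7.4, and counted by scintillation; IC₅₀ values were calculated.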

Binder | GBA EC50 Ratio (vs PYY(3-36)), [35S]GTPγS (human Y2 receptor [1]) [ratio] | IC50 Ratio (vs PYY(3-36)) (human Y2 receptor [2]) [ratio]
B1 | 1.6 | 1.6
B2 | 1.1 | 2.4
B3 | 4.3 | 6.8
B4 | 15 | 18
B5 | 5.9 | 5.1
B6 | 29 | 42
B7 | 7.4 | 9.1

Source: patent publication US20120172293A1 (Takeda / Millennium, published 2012)
